Reference: publication PMC2847220 (Nucleic Acids Research, 2009)

Molecular target: the molecule itself
Assay: AUC

B1: Tpa1Δ20, N-terminal truncated form (residues 21–644) of S. cerevisiae Tpa1 (domain or fragment, UniProt P40032 21-644, looked up)
chain: LEEDKIKGMFNPKIWDKTFQDGLKKEIEDSQPYNWGTIHELVNDDLLRAVRKEIETEIHFTKKETDIYRVNQSGDLANLSGLDWDDLSRLPNLFKLRQILYSKQYRDFFGYVTKAGKLSGSKTDMSINTYTKGCHLLTHDDVIGSRRISFILYLPDPDRKWKSHYGGGLRLFPSILPNVPHSDPSAKLVPQFNQIAFFKVLPGFSFHDVEEVKVDKHRLSIQGWYHIPQVGEEGYIPGEEEAWVRNNTSTLAQIESNVLEDFEFPKDERNILSFHEVKHFEKMLKGDAGAKTDNTPKESMTSVISDSVKLSEAEFTYLSQYISPEHLSSKGIEKLQKQFVENSSLQIESFLNDDKSELLKKVIKQKELEQECPYHSKDVKAPWKTAIPPHKARYLYIDGKEYRNFQTEADILEALNNNDLPNFQFTKDAIKIISDASGNSRENNFDAELALIDLAVFHKSTIFKKYLALLTSLCPVSEQILIRRFRPGMDFTLATKCRFNELLKSNPDIIDAVLEGTLCLTPSAGWESGELGGYELYMMDDDEDNKQYLKEDVEDASVYRADDSGDSVLINDPPAWNTFNLVLRDESVLEFVKYVSWSAKSSRWDVKMKWDVKSCDEDGQEDEA
  stoichiometry N: 2
